Measurements as given in patent US20190263864A1 (GENOIMMUNE THERAPEUTICS, published 2019).

Molecular target: T1, HLA-A0201 on the surface of T2 cells (human)
T1 construct: MHC class I molecule on TAP-deficient T2 cells
Assay: T2 cell peptide loading, 100 µM peptide, anti-HLA-A*02:01 FITC flow cytometry
Protocol: After centrifugation at 200 g for 5 minutes for cell collection, the collected cells were washed with phosphate buffer saline (PBS) buffer twice, before incubated with anti-HLA-A*02:01 FITC monoclonal antibody at 4° C. for 30 minutes. The mean fluorescence intensity of cells was then detected and analyzed by the flow cytometry (BD FACSJazz™) and its software.

Row | Binder | FI (fluorescence index) | Mean fluorescence intensity
1 | FILDGSYSV [wild-type polypeptide (depicted in FILDGSYSV, SEQ ID NO:7)] | 1.59 | 589
2 | FILDGLYSV [mutant polypeptide (depicted in FILDGLYSV, SEQ ID NO:1)] | 1.92 | 664
3 | FILDGLYSL [mutant polypeptide's variant (depicted in FILDGLYSL, SEQ ID NO:2)] | 1.99 | 681
4 | FLLDGLYSL [mutant polypeptide's variant (depicted in FLLDGLYSL, SEQ ID NO:6)] | 1.69 | 612
5 | FLLDGLYSV [mutant polypeptide's variant (depicted in FLLDGLYSV, SEQ ID NO:4)] | 2.04 | 692
6 | FMLDGLYSL [mutant polypeptide's variant (depicted in FMLDGLYSL, SEQ ID NO:5)] | 2.14 | 714
7 | FMLDGLYSV [mutant polypeptide's variant (depicted in FMLDGLYSV, SEQ ID NO:3)] | 2.34 | 759
